Patent publication US9114104B2, “Proteinase K inhibitors, methods and compositions therefor” (Life Technologies Corporation, priority 2008, dated 2015)

Experiments:
[1] = target: T1, proteinase K (Parengyodontium album, UniProt P06873); test: Detection of β-actin RNA in HeLa cell lysates after stop solution (in vitro validation); format: biochemical; settings: FIG. 6; ~10,000 HeLa cells lysed, β-actin RT-PCR
Description: HeLa cells (˜10,000 cells) were lysed in 50 μl lysis solution for 5 minutes at room temperature. Stop solution (5 μl) was then added; the lysate-stop solution was mixed, and incubated for 2 minutes at room temperature. A volume of 10 μl of stopped lysate was added to a 50 μl RT reaction followed by addition of 4 μl of RT reaction into a 20 μl PCR reaction using the β-actin primers/probe of the TaqMan® Gene Expression Cells-to-CT™ Kit (Applied Biosystems).

[2] = target: T1, proteinase K; test: Indirect linked assay: proteinase K inhibition read out by reverse transcriptase real time PCR of Xeno RNA template (Cells-to-CT kit); format: biochemical; settings: for proteinase K inhibitory activity / Ct (cycle threshold): FIG. 1; for proteinase K inhibitory activity: all concentrations tested; for Ct (cycle threshold): all concentrations tested (1 mM to 0.05 mM), no Xeno RNA detected
Description: The present example provides for inhibition of proteinase K in the context of preparing samples for nucleic acid detection. Said preparation of samples is described by pending U.S. patent application Ser. No. 12/122,274 filed May 16, 2008 entitled “Sample Preparation for In Situ Nucleic Acid Analysis, Methods and Compositions Therefor,” hereby incorporated by reference in its entirety. Embodiments of said patent application provide a process for preparing a sample containing RNA for in situ analysis of RNA or a surrogate thereof. In some embodiments, the process comprises contacting the sample containing RNA with a lysis mixture comprising a polypeptide having protease activity under conditions and for a time to produce a lysate, and admixing at least a portion of the lysate with a stop mixture that comprises an inhibitor of the polypeptide having protease activity at substantially the same temperature as the contacting step to form a stopped mixture. The resultant stopped mixture is preferably compatible with in situ reverse transcriptase and DNA polymerase reactions.
Methoxysuccinyl tetrapeptide chloromethylketone compounds synthesized as set forth in Example 1 herein were analyzed for inhibitory activity of proteinase K in such stopped mixtures as described below. Functional validation for the nucleic acid detection system using inhibitors of embodiments herein was carried out by measuring mRNA levels in biological samples using the TaqMan® Gene Expression Cells-to-CT™ Kit and the TaqMan® Cells-to-CT™ Control Kit (Applied Biosystems, Foster City, Calif.). MicroAmp® optical 96-well reaction plates were purchased from Applied Biosystems. Disposable reagent reservoirs were purchased from VistaLab Technologies, Inc (Mt. Kisco, N.Y.). Reverse transcription (RT) reactions were performed at 37° C. for 60 min, 95° C. for 5 min, and cooled to 4° C. by using GeneAmp® PCR systems 9700 (Applied Biosystems). Real time PCR was performed by using 7500 Fast Real-Time PCR System. (Applied Biosystems).
The present indirect linked assay measures the amount of inhibition of proteinase K activity by assaying reverse transcriptase real time PCR amplification of a template, which amplification is dependent upon reverse transcriptase activity.
Stop solutions (100 μl) contained the following reagents (10× concentration):
Test inhibitor, 11 mM (final concentration when diluted into stopped mixture is 1 mM). Test inhibitor was also used at concentrations such that, when diluted with a lysis mixture to form a stopped mixture as described below, the final concentration of inhibitor in the stopped mixture was 0.75 mM, 0.5 mM, 0.25 mM, 0.10 mM, 0.05 mM and 0 mM (control).
Proteinase K lysis solution (50 μL (no added DNase)) from the TaqMan® gene expression Cells-to-CT™ kit (Applied Biosystems) was aliquoted into 18 tubes. To the test samples (these are a working equivalent to lysis mixtures in the Cells-to-CT™ workflow), stop solution (5 μL) was added; the tubes were mixed and held for 2 min at room temperature. For the control reactions, 50 μl of proteinase K buffer was mixed with 5 μl of stop mix without inhibitor and the resulting reaction mixture was heated at 95° C. for 10 min to thermally inactivate the proteinase K reaction. Next, reverse transcription reagents were prepared, i.e. 15 μL 2×RT buffer, and 1.5 μL of 20×RT enzyme mix, were aliquoted and mixed in the wells of a 96 well plate. To this RT solution, 13.5 μL of each proteinase K containing stopped mixture was added and the solution was mixed well. The resulting mixtures were incubated at room temperature for 1 hr for residual proteinase K activity to degrade the RT enzyme. After 1 hr incubation at room temperature, 1 μL of Xeno™ RNA Control template (Applied Biosystems P/N 4386995 diluted to 25,000 copies/μL in 10 ng/μL poly A) was added to all wells except for the no template control wells. […]

T1 sequence (P06873 106-384): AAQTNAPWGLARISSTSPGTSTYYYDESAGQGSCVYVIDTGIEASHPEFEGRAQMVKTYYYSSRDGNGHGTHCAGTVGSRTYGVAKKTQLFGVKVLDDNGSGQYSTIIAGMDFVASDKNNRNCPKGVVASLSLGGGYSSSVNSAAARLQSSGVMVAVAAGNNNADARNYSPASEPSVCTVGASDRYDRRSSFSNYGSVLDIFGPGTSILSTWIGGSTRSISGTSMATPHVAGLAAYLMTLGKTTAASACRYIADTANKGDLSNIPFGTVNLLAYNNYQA

With “methoxysuccinyl-AAPL-chloromethyl ketone (HELM PEPTIDE1{[COC(=O)CCC(=O)[*:2]].A.A.P.L.[ClC[*:1]]}$$$$V2.0; SMILES COC(=O)CCC(=O)N[C@@H](C)C(=O)N[C@@H](C)C(=O)N1CCC[C@H]1C(=O)N[C@@H](CC(C)C)C(=O)CCl) [MeOSuc-AAPL-CH2Cl]” the “concentration providing effective inhibition of proteinase K” value [1] was “about 0.1 mM”.
With “MeOSuc-AlaAlaAlaProPhe-CH2Cl (AAAPF; HELM PEPTIDE1{[COC(=O)CCC(=O)[*:2]].A.A.A.P.F.[ClC[*:1]]}$$$$V2.0; SMILES COC(=O)CCC(=O)N[C@@H](C)C(=O)N[C@@H](C)C(=O)N[C@@H](C)C(=O)N1CCC[C@H]1C(=O)N[C@@H](Cc1ccccc1)C(=O)CCl) [MeOSuc-AAAPF-CH2Cl]” the “concentration required to achieve the same level of inhibition as MeOSuc-AAPF-CH2Cl at 0.05 mM” value ([2]; FIG. 5 compared to FIG. 1) was 0.1 mM and the “concentration providing effective inhibition of proteinase K” value [1] was “about 0.1 mM”.
With “methoxysuccinyl-APAV-chloromethyl ketone (HELM PEPTIDE1{[COC(=O)CCC(=O)[*:2]].A.P.A.V.[ClC[*:1]]}$$$$V2.0; SMILES COC(=O)CCC(=O)N[C@@H](C)C(=O)N1CCC[C@H]1C(=O)N[C@@H](C)C(=O)N[C@H](C(=O)CCl)C(C)C) [MeOSuc-APAV-CH2Cl]” the “proteinase K inhibitory activity” value [2] was “inactive at all concentrations tested” and the “Ct (cycle threshold)” value [2] was 40.
“MeOSuc-AlaAlaAlaProVal-CH2Cl (AAAPV; HELM PEPTIDE1{[COC(=O)CCC(=O)[*:2]].A.A.A.P.V.[ClC[*:1]]}$$$$V2.0; SMILES COC(=O)CCC(=O)N[C@@H](C)C(=O)N[C@@H](C)C(=O)N[C@@H](C)C(=O)N1CCC[C@H]1C(=O)N[C@H](C(=O)CCl)C(C)C) [MeOSuc-AAAPV-CH2Cl]” was tested, and the “concentration required to achieve the same level of inhibition as MeOSuc-AAPV-CH2Cl at 0.25 mM” value ([2]; FIG. 5) was 0.75 mM and the “concentration providing effective inhibition of proteinase K” value [1] was 0.5 mM.
In the case of “methoxysuccinyl-APAL-chloromethyl ketone (HELM PEPTIDE1{[COC(=O)CCC(=O)[*:2]].A.P.A.L.[ClC[*:1]]}$$$$V2.0; SMILES COC(=O)CCC(=O)N[C@@H](C)C(=O)N1CCC[C@H]1C(=O)N[C@@H](C)C(=O)N[C@@H](CC(C)C)C(=O)CCl) [MeOSuc-APAL-CH2Cl]”, the “lowest concentration in the stopped mixture with inhibitory activity for proteinase K” value ([2]; Example 2, FIG. 1, tested 1 mM to 0.05 mM in stopped mixture) is reported as “about 0.5 mM”.
“methoxysuccinyl-APAF-chloromethyl ketone (HELM PEPTIDE1{[COC(=O)CCC(=O)[*:2]].A.P.A.F.[ClC[*:1]]}$$$$V2.0; SMILES COC(=O)CCC(=O)N[C@@H](C)C(=O)N1CCC[C@H]1C(=O)N[C@@H](C)C(=O)N[C@@H](Cc1ccccc1)C(=O)CCl) [MeOSuc-APAF-CH2Cl]” was tested, and the “proteinase K inhibitory activity” value [2] was “inactive at all concentrations tested” and the “Ct (cycle threshold)” value [2] was 40.
